Positions count from the first letter of the chain named.
B1: KL001 (PL110) (antibody, V domains shown)
VH: QVQLVESGAEVKKPGSSVKVSCKASGGTFSSYAISWVRQAPGQGLEWMGRIIPILGIANYAQKFQGRVTVTADKSTSTAYMELSSLRSEDTAVYYCARSGYSYAYGSFDYWGQGTLVTVSS
VL: QLVLTQPPSVSGAPGQTVTISCTGPTIGAGYDVHWYQQLPGAAPKLLIYGNLNRPSGVPDRFSGSKSGTSASLAITDLQAEDEADYYCQSYDSRLGVVFGGGTKLTVLR
notes: IgG (VH-CH1-hinge-CH2-CH3 and VL-Ck); also called KL001 clone
B2: KL001-13 (antibody, human IgG1, kappa, V domains shown)
VH: B1 VH with S102G
VL: B1 VL with P25Q
notes: also called KL001-13 candidate antibody
B3: KL001-08 (antibody, V domains shown)
VH: B1 VH with S31G, I54A, S102G
VL: QLVLTQPPSVSGAPGQTVTISCTGPTIGAGYDVHWYQQLPGAAPKLLIYGNLNRPSGVPDRFSGSKSGTSASLAITDLQAEDEADYYCQSYDSTHGVVFGGGTKLTVL
notes: In the Biacore assay it was captured by anti-human IgG (Fc), so it carried a human Fc there; also called KL001-8

Key:
[1] = molecular target: T1, PD-L1-Fc (PD-L1 antigen protein, extracellular region Met1-Thr239 fused to human Fc) (human, UniProt Q9NZQ7 19-239); assay: BLI (Octet); PD-1-coated biosensor dipped in a mix of PD-L1 antigen protein and antibody; KD from the Octet software
T1 construct: range 1-239; the secreted protein lacks it; also called PD-L1-Fc antigen; pCEP4-PDL1-Fc product; not shown: human Fc fragment of the pCEP4-Fc vector

[2] = molecular target: human PD-L1 expressed on the cell surface (human, UniProt Q9NZQ7 19-290); assay: cell-based or functional assay
[3] = molecular target: T2, mouse PD-L1 on IFN-gamma-treated MC38 murine colon cancer cells (mouse, UniProt Q9EP73 19-290); assay: the sentence names no assay
T2 construct: whole, on cells; also called mouse PD-L1 protein

[4] = molecular target: T3, human PD-L1 antigen protein (Sino Biological) (human, UniProt Q9NZQ7 19-238); assay: SPR (Biacore T200), antibody captured by anti-human IgG (Fc) on a CM5 chip, hPD-L1 as analyte, 1:1 binding model
T3 construct: Bought from Sino Biological
Procedure: (§1) 3) In order to remove the bound antibody every cycle, a regeneration solution (3 M MgCl₂) was injected at a flow rate of 30 μl/min for 30 seconds, and the experimental data were obtained using a 1:1 binding model of BIA evaluation software version 1.0.

[5] = molecular target: T3, human PD-L1 antigen protein (Sino …); assay: SPR (Biacore T200), antibody captured by anti-human IgG (Fc), PD-L1 as analyte, 1:1 model
Procedure: as §1

[6] = molecular target: T4, mouse PD-L1 antigen protein (mouse, UniProt Q9EP73 19-238, limits assumed); assay: as above
Procedure: as §1

[7] = molecular target: T4, mouse PD-L1 antigen protein; assay: SPR (Biacore T200), antibody captured by anti-human IgG (Fc) on a CM5 chip, mPD-L1 as analyte, 1:1 binding model
Procedure: as §1

T1 sequence (Q9NZQ7 19-239): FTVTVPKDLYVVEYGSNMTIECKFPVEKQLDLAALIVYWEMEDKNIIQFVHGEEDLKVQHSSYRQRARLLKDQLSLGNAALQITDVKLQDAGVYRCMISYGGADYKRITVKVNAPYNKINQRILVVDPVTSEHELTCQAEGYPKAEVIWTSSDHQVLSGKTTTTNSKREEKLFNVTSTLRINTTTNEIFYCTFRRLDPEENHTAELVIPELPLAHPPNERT
T4 sequence (Q9EP73 19-238 limits assumed): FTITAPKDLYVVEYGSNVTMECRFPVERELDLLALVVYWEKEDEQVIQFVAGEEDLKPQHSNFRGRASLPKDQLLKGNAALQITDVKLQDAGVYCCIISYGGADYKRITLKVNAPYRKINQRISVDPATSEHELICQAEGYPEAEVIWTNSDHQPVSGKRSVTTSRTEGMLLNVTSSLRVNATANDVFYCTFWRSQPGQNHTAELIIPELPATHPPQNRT
T3 sequence (Q9NZQ7 19-238 limits assumed): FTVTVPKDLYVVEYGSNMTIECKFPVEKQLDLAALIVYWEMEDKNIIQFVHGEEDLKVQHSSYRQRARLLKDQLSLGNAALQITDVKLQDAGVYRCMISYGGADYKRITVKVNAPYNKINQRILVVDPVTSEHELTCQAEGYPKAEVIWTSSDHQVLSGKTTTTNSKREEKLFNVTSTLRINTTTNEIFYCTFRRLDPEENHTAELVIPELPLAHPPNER
T2 sequence (Q9EP73 19-290): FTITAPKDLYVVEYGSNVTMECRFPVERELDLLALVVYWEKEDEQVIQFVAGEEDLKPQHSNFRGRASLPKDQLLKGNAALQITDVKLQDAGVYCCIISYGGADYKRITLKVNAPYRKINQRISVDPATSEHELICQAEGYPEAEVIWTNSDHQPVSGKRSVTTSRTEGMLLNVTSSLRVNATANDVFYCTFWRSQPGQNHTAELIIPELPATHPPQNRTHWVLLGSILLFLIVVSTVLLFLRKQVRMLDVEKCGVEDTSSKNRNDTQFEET
Chain of human PD-L1 expressed on the cell surface (Q9NZQ7 19-290): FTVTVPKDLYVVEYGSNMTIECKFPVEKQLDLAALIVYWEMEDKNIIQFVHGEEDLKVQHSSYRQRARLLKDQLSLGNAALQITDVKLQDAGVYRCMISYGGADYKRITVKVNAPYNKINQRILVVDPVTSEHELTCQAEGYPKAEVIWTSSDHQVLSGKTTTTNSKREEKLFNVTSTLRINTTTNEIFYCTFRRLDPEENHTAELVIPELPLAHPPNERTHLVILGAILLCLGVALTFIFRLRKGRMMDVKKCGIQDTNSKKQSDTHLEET

Binder	Kd [1]	PD-1/PD-L1 binding inhibitory performance relative to 100% of the MK3475 antibody (Promega PD-1/PD-L1 Blockade Bioassay) [2]	binding result [3]	koff [4]	kon [4]	Kd [5]	Kd [6]	koff [7]	kon [7]
B1	58.4 pM	89%	binds	–	–	–	–	–	–
B2	4.88 pM	–	–	0.000319 s⁻¹	5.05e+06 M⁻¹ s⁻¹	~63.2 pM	~2800 pM	0.00878 s⁻¹	3.14e+06 M⁻¹ s⁻¹
B3	14.2 pM	–	–	0.000277 s⁻¹	4.13e+06 M⁻¹ s⁻¹	67.1 pM	6400 pM	0.0106 s⁻¹	1.65e+06 M⁻¹ s⁻¹

From US20220195049A1 (Scripps Research, published 2022)
